The record followed here is article PMC5559510.

Test [1] deals with TMR-labeled SNAP-25a (S187C) (human) (UniProt P60880). In words: FRET or BRET; one-membrane system, 37°C; Munc18-1/full-length syntaxin-1 on t-liposomes, TMR-SNAP-25a (S187C), BDPY-synaptobrevin-2 (29–93, S61C) in solution, 0.5 μM Munc13-1 C1-C2B-MUN, with or without 0.5 μM Syt1 C2AB, 0.2 mM EDTA; two-phase exponential decay. In general terms: Bioluminescence resonance energy transfer reports proximity on the nanometre scale.

For test [2] the target is unchanged. In words: FRET or BRET; membrane-free, 37°C; 5 μM co-expressed Munc18-1/syntaxin-1 (1–261), 5 μM TMR-SNAP-25a (S187C), 1 μM BDPY-synaptobrevin-2 (29–93, S61C), 30 μM Munc13-1 MUN domain, with or without 2 μM Syt1 C2AB; fitted to a one-phase exponential decay.
Test [3] deals with TMR labeled SNAP-25a Δ9 (residues 1–197, S187C) (human) (UniProt P60880). In words: FRET or BRET; two-membrane system, 37°C; Munc18-1/full-length syntaxin-1 on t-liposomes, BDPY-full-length synaptobrevin-2 (S61C) on v-liposomes, TMR-SNAP-25a Δ9 (S187C), 0.5 μM Munc13-1 C1-C2B-MUN, with or without 0.5 μM Syt1 C2AB, 0.2 mM EDTA; two-phase exponential decay.

As to “BDPY-labeled synaptobrevin-2 cytoplasmic domain (residues 29–93, S61C) (from UniProt P63045 29-93) (domain or fragment)”, in test [1], the kfast of ternary SNARE complex formation (no Syt1) came to 0.00135 s⁻¹, the kfast of ternary SNARE complex formation (with Syt1 C2AB) stood at 0.0152 s⁻¹, the τfast of ternary SNARE complex formation (no Syt1) stood at 740 s and the τfast of ternary SNARE complex formation (with Syt1 C2AB) worked out at 65.8 s. In test [2], this substance came in with a kfast of ternary SNARE complex formation (no Syt1) of 0.0013 s⁻¹, a kfast of ternary SNARE complex formation (with Syt1 C2AB) of 0.00354 s⁻¹, a τfast of ternary SNARE complex formation (no Syt1) of 770 s and a τfast of ternary SNARE complex formation (with Syt1 C2AB) of 282 s.

In test [3], “BDPY-labeled full-length synaptobrevin-2 (residues 1–116, S61C), on v-liposomes (from UniProt P63045 1-116) (natural protein)” registered a kfast of ternary SNARE complex formation (no Syt1) of 0.0123 s⁻¹, a kfast of ternary SNARE complex formation (with Syt1 C2AB) of 0.0249 s⁻¹, a τfast of ternary SNARE complex formation (no Syt1) of 81.4 s and a τfast of ternary SNARE complex formation (with Syt1 C2AB) of 40.1 s.
